Among the data in the supplement of paper PMC10567573 are protein stability index values, retold here.

The chains are these.
B1: PPFIA4 (parent)
chain: PGVHRRYSALREESAKDWETSPLP
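Further: lentivirally expressed fusions sorted by FACS into six bins by GFP to DsRed ratio, PSI derived from sequencing read proportions per bin multiplied by bin number.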

The variants in the data set derive from B1. Briefly: protein stability index of a GFP-peptide fusion (GPS, HEK-293T) (PSI 1-6); higher = more stable. The conditions noted are these: c terminus: a fixed tail appended.
With PGVHRRYSALREEWAKDWETSPLP [S14W], the protein stability index is 2.81.

As to PGVHRRYSALREEDAKDWETSPLP [S14D], the protein stability index came to 4.92.

Consider PGVHRRYSALREELAKDWETSPLP [S14L], for which the protein stability index was 3.93.

Turning to PGVHRRYSALREEYAKDWETSPLP [S14Y], the protein stability index was determined as 3.46.

On to PGVHRRYSALREENAKDWETSPLP [S14N], for which the protein stability index is 4.69.

With PGVHRRYSALREESAKDWETRPLP [S21R], the protein stability index was 4.03.

For the variant PGVHRRYSALREESAKDWETTPLP [S21T], the protein stability index worked out at 4.07.

For the variant PGVHRRYSALREESAKDWETFPLP [S21F], the protein stability index was found to be 3.34.

Turning to PGVHRRYSALREESAKDWETNPLP [S21N], the protein stability index turned out to be 5.33.

As to PGVHRRYSALREESAKDWETKPLP [S21K], the protein stability index came out at 3.98.

Consider PGVHRRYSALREESAKDWETMPLP [S21M], for which the protein stability index is 3.67.

Turning to PGVHRRYSALREESAKDWETEPLP [S21E], the protein stability index came to 4.5.

On to PGVHRRYSALREESAKDWETLPLP [S21L], for which the protein stability index stood at 3.6.

Take PGVHRRYSALREESAKDMETSPLP [W18M]: the protein stability index was found to be 5.08.

As to PGVHRRYSALREESAKDHETSPLP [W18H], the protein stability index is 5.23.

Take PGVHRRYSALREESAKDFETSPLP [W18F]: the protein stability index stood at 4.4.

As to PGVHRRYSALREESAKDIETSPLP [W18I], the protein stability index amounted to 4.81.

Regarding PGVHRRYSALREESAKDRETSPLP [W18R], the protein stability index is 4.42.

For the variant PNVHRRYSALREESAKDWETSPLP [G2N], the protein stability index worked out at 4.5.

Take PYVHRRYSALREESAKDWETSPLP [G2Y]: the protein stability index amounted to 4.08.

For the variant PQVHRRYSALREESAKDWETSPLP [G2Q], the protein stability index is 4.43.

As for PDVHRRYSALREESAKDWETSPLP [G2D], the protein stability index was 4.4.

Consider PMVHRRYSALREESAKDWETSPLP [G2M], for which the protein stability index came to 3.62.

As to PGVHRCYSALREESAKDWETSPLP [R6C], the protein stability index amounted to 3.72.

With PGVHRDYSALREESAKDWETSPLP [R6D], the protein stability index turned out to be 4.7.

On to PGVHRFYSALREESAKDWETSPLP [R6F], for which the protein stability index stood at 3.74.

For the variant PGVHRAYSALREESAKDWETSPLP [R6A], the protein stability index is 4.49.

On to TGVHRRYSALREESAKDWETSPLP [P1T], for which the protein stability index stood at 4.16.

For the variant EGVHRRYSALREESAKDWETSPLP [P1E], the protein stability index came to 3.49.

As to YGVHRRYSALREESAKDWETSPLP [P1Y], the protein stability index came out at 4.17.

Turning to MGVHRRYSALREESAKDWETSPLP [P1M], the protein stability index stood at 3.51.

In the case of PGVHRRYSALREFSAKDWETSPLP [E13F], the protein stability index stood at 3.8.

Consider PGVHRRYSYLREESAKDWETSPLP [A9Y], for which the protein stability index was found to be 3.4.

For the variant PGVHRRYSPLREESAKDWETSPLP [A9P], the protein stability index stood at 2.93.

On to PGVHRRYSKLREESAKDWETSPLP [A9K], for which the protein stability index was determined as 4.03.

In the case of PGVHRRYSGLREESAKDWETSPLP [A9G], the protein stability index amounted to 3.87.

As for PGVHRRYSMLREESAKDWETSPLP [A9M], the protein stability index amounted to 3.86.

Turning to PGVHRRYSALREESAKQWETSPLP [D17Q], the protein stability index was determined as 3.39.

As for PGVHRRYSALREESAKIWETSPLP [D17I], the protein stability index is 3.33.

Turning to PGVHRRYSALREESAKAWETSPLP [D17A], the protein stability index amounted to 3.29.

On to PGVHRRYSALREESAKVWETSPLP [D17V], for which the protein stability index was determined as 3.86.

For the variant PGVHRRYSALREESAKNWETSPLP [D17N], the protein stability index was 3.98.

With PGVHRRYSADREESAKDWETSPLP [L10D], the protein stability index is 4.97.

For PGVHRRYSAIREESAKDWETSPLP [L10I], the protein stability index came out at 4.15.

As for PGVHRRYSAPREESAKDWETSPLP [L10P], the protein stability index was 4.97.

With PGVHRRYSAMREESAKDWETSPLP [L10M], the protein stability index amounted to 4.31.

As to PGVHRRYSAKREESAKDWETSPLP [L10K], the protein stability index was 4.69.

In the case of PGVHRRYSAAREESAKDWETSPLP [L10A], the protein stability index turned out to be 3.69.

With PGVHRRYSAWREESAKDWETSPLP [L10W], the protein stability index was 4.31.

In the case of PGVHRRYSALREESAQDWETSPLP [K16Q], the protein stability index was found to be 3.67.

With PGVHRRYSALREESAHDWETSPLP [K16H], the protein stability index amounted to 4.17.

Take PGVHRRYSALREESARDWETSPLP [K16R]: the protein stability index turned out to be 3.99.

PGVHRRYSALREESALDWETSPLP [K16L]: the protein stability index stood at 4.05.

In the case of PGVHRRYSALREESANDWETSPLP [K16N], the protein stability index was 4.66.

PGVHRRYSALREESAVDWETSPLP [K16V]: the protein stability index turned out to be 4.2.

For the variant PGVHRRYSALREESATDWETSPLP [K16T], the protein stability index came to 4.5.

For the variant PGVHRRYSALREESASDWETSPLP [K16S], the protein stability index was 4.13.

With PGVHLRYSALREESAKDWETSPLP [R5L], the protein stability index was 3.99.

Regarding PGVHHRYSALREESAKDWETSPLP [R5H], the protein stability index worked out at 4.27.

For PGVHGRYSALREESAKDWETSPLP [R5G], the protein stability index stood at 3.96.

As for PGVHMRYSALREESAKDWETSPLP [R5M], the protein stability index turned out to be 4.71.

For PGVHRRYSALMEESAKDWETSPLP [R11M], the protein stability index turned out to be 4.45.

As for PGVHRRYSALPEESAKDWETSPLP [R11P], the protein stability index amounted to 4.19.

Consider PGVHRRYSALGEESAKDWETSPLP [R11G], for which the protein stability index amounted to 3.41.

For PGVHRRYSALQEESAKDWETSPLP [R11Q], the protein stability index stood at 4.65.

Consider PGVHRRYSALLEESAKDWETSPLP [R11L], for which the protein stability index was found to be 3.86.

On to PGVHRRYSALWEESAKDWETSPLP [R11W], for which the protein stability index came to 3.16.

In the case of PGVHRRYSALFEESAKDWETSPLP [R11F], the protein stability index worked out at 3.59.

Take PGVHRRYSALVEESAKDWETSPLP [R11V]: the protein stability index came out at 4.21.

For the variant PGVHRRYSALRRESAKDWETSPLP [E12R], the protein stability index was found to be 3.45.

For PGVHRRYSALRGESAKDWETSPLP [E12G], the protein stability index came out at 4.62.

Take PGVHRRYSALRNESAKDWETSPLP [E12N]: the protein stability index was 4.23.

For the variant PGVHRRYSALRMESAKDWETSPLP [E12M], the protein stability index was 3.56.

On to PGVHRRYSALRSESAKDWETSPLP [E12S], for which the protein stability index came to 3.68.

PGVHRRYSALREESAKDWVTSPLP [E19V]: the protein stability index turned out to be 3.24.

For the variant PGVHRRYSALREESAKDWMTSPLP [E19M], the protein stability index was found to be 2.93.

In the case of PGVHRRYSALREESAKDWRTSPLP [E19R], the protein stability index came to 3.55.

On to PGVHRRYSALREESAKDWNTSPLP [E19N], for which the protein stability index is 3.42.

As for PGVHRRYSALREESAKDWATSPLP [E19A], the protein stability index worked out at 2.97.

As for PGVHRRYSALREESAKDWLTSPLP [E19L], the protein stability index is 3.97.

Regarding PGVHRRYSALREESAKDWDTSPLP [E19D], the protein stability index stood at 4.03.

In the case of PGVHRRYSALREESAKDWYTSPLP [E19Y], the protein stability index was 2.37.

Regarding PGVHRRYSALREESDKDWETSPLP [A15D], the protein stability index came out at 4.92.

As for PGVHRRYSALREESMKDWETSPLP [A15M], the protein stability index was found to be 2.77.

On to PGVHRRYSALREESEKDWETSPLP [A15E], for which the protein stability index amounted to 4.52.

With PGVHRRYSALREESPKDWETSPLP [A15P], the protein stability index turned out to be 4.12.

As for PGVHRRYSALREESHKDWETSPLP [A15H], the protein stability index was 4.39.

With PGVHRRYSALREESFKDWETSPLP [A15F], the protein stability index stood at 3.52.

As for PGVHRRYSALREESQKDWETSPLP [A15Q], the protein stability index amounted to 3.63.

For PGVHRRVSALREESAKDWETSPLP [Y7V], the protein stability index is 4.49.

For PGVHRRHSALREESAKDWETSPLP [Y7H], the protein stability index was determined as 4.39.

With PGVHRRESALREESAKDWETSPLP [Y7E], the protein stability index amounted to 5.25.

In the case of PGVHRRTSALREESAKDWETSPLP [Y7T], the protein stability index turned out to be 4.27.

PGVHRRNSALREESAKDWETSPLP [Y7N]: the protein stability index was found to be 4.5.
